This note sets out measurements from publication PMC10371798, “Protein–protein interactions between tenascin-R and RPTPζ/phosphacan are critical to maintain the architecture of perineuronal nets” (The Journal of Biological Chemistry, 2023).

Where “and” joins values, the source holds several entries; their conditions need not be identical. Equal entries are not always repeated. A value given as a limit tells only on which side of the number the result lay.

What all share (conditions): both partners purified
Assay [1] has as its target T1, CA-FN domains of human RPTPζ (amino acid residues 34-410) fused to human IgG1 Fc, purified (human, UniProt P23471 34-410).
T1 construct: RPTPζ, human, carbonic anhydrase-like and FN domains (CA-FN), residues 34-410; also called RPTPζ(CA-FN); IgG Fc fusion of RPTPζ(CA-FN)
Kind of assay: AlphaScreen or HTRF; competition format: biotinylated human TNC(Fg) (5 nM) on streptavidin donor beads, purified RPTPζ(CA-FN)-Fc (0.5 nM) on protein A acceptor beads, untagged Fg domains at varying concentrations; room temperature; one-site competition fit.

Assay [2] addresses T2, CA-FN domains of human RPTPζ fused to human IgG1 Fc (human, UniProt P23471 34-410).
T2 construct: carbonic anhydrase-like and fibronectin type III (CA-FN) domains of human RPTPζ, amino acid residues 34-410; also called RPTPζ(CA-FN)-Fc; RPTPζ(CA-FN)
Kind of assay: AlphaScreen or HTRF; competition: RPTPζ(CA-FN)-Fc (0.5 nM) on protein A acceptor beads, biotinylated TNC(Fg) (5 nM) on streptavidin donor beads, untagged Fg domain as inhibitor in a dilution series; room temperature; one-site competition fit. On the technique in general: Bead proximity is the source of the signal in Alpha formats.

Assay [3] concerns the target T3, Fg domain of human tenascin-R (amino acid residues 1129-1358) (human, UniProt Q92752 1129-1358).
T3 construct: tenascin-R (TNR), human, fibrinogen-like (Fg) domain, residues 1129-1358; also called TNR(Fg); source: E. coli Origami 2(DE3), purified (Ni Sepharose, 3C cleavage, HiTrap Heparin, Superdex 200)
T3 sequence (looked up): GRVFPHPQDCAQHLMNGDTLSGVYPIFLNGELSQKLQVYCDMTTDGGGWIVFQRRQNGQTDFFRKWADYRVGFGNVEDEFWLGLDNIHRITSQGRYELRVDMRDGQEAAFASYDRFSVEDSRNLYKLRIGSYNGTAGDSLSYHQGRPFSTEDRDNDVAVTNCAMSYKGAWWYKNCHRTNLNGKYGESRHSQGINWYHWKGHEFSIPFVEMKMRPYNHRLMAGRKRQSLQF
Kind of assay: BLI; biotinylated FN domain of RPTPζ (250 nM) immobilised on streptavidin tips; Fg domain in solution; room temperature; 150 mM NaCl, 10 mM Na-Hepes pH 7.5, 1 mg/ml BSA, 0.02% Tween-20, 5 mM CaCl2; KD from the signal at equilibrium. (In general: In BLI a coated tip is dipped into the sample, and binding shifts an interference pattern.)

Assay [4] concerns the target T4, Fg domain of human tenascin-C (amino acid residues 1975-2201) (human, UniProt P24821 1975-2201).
T4 construct: tenascin-C (TNC), human, fibrinogen-like (Fg) domain, residues 1975-2201; also called TNC(Fg); WT TNC; source: E. coli Origami 2(DE3), purified (Ni Sepharose, 3C cleavage, HiTrap Heparin, Superdex 200)
T4 sequence (looked up): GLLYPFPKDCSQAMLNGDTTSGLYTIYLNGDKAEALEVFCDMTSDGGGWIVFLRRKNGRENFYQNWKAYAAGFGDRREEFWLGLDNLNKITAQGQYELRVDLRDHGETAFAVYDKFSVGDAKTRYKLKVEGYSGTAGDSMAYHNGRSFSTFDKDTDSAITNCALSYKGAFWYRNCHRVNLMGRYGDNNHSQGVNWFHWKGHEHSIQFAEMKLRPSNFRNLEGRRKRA
The assay is described as above.

For assay [5], the target named is T3, Fg domain of human tenascin-R (amino …). Kind of assay: BLI; biotinylated FN domain of RPTPζ (250 nM) immobilised on streptavidin tips; Fg domain in solution; room temperature; 150 mM NaCl, 10 mM Na-Hepes pH 7.5, 1 mg/ml BSA, 0.02% Tween-20, 5 mM EDTA; KD from the signal at equilibrium.
In assay [6] the target is T4, Fg domain of human tenascin-C (amino …). Described as above.
For assay [7], the target named is T5, Fg domain of human tenascin-C (human, UniProt P24821 1975-2201).
T5 construct: C-terminal fibrinogen-like (Fg) domain of human tenascin-C, amino acid residues 1975-2201; also called HTNC(Fg); TNC(Fg); source: E. coli Origami 2(DE3), purified (Ni Sepharose, HRV 3C cleavage, HiTrap Heparin, Superdex 200)
T5 sequence (looked up): T4 sequence (looked up)
Kind of assay: BLI; biotinylated RPTPζ(FN) on streptavidin tips, Fg domain as analyte; room temperature, 150 mM NaCl, 10 mM Na-Hepes pH 7.5, 1 mg/ml BSA, 0.02% Tween-20, 5 mM CaCl2; dose-response analysis of the signal at equilibrium.

For assay [8], the target named is T6, Fg domain of human tenascin-R (human, UniProt Q92752 1129-1358).
T6 construct: C-terminal fibrinogen-like (Fg) domain of human tenascin-R, amino acid residues 1129-1358; also called HTNR(Fg); TNR(Fg); source: E. coli Origami 2(DE3), purified (Ni Sepharose, HRV 3C cleavage, HiTrap Heparin, Superdex 200)
T6 sequence (looked up): T3 sequence (looked up)
Described as above.

Assay [9] deals with T5, Fg domain of human tenascin-C. Kind of assay: BLI; biotinylated RPTPζ(FN) on streptavidin tips, Fg domain as analyte; room temperature, 150 mM NaCl, 10 mM Na-Hepes pH 7.5, 1 mg/ml BSA, 0.02% Tween-20, 5 mM CaCl2; kinetic analysis, sensorgrams fitted to a 1:1 binding model.
Assay [10] addresses T6, Fg domain of human tenascin-R. The description is as above.

B1: biotinylated Fg domain of human tenascin-C with a cysteine residue added at the N-terminus (domain or fragment)
chain: CGLLYPFPKDCSQAMLNGDTTSGLYTIYLNGDKAEALEVFCDMTSDGGGWIVFLRRKNGRENFYQNWKAYAAGFGDRREEFWLGLDNLNKITAQGQYELRVDLRDHGETAFAVYDKFSVGDAKTRYKLKVEGYSGTAGDSMAYHNGRSFSTFDKDTDSAITNCALSYKGAFWYRNCHRVNLMGRYGDNNHSQGVNWFHWKGHEHSIQFAEMKLRPSNFRNLEGRRKRA
modifications: biotin (EZ-Link Maleimide-PEG2-Biotin) on the added N-terminal cysteine
notes: cysteine residue added at the N-terminus of the Fg domain by site-directed mutagenesis; tenascin-C (TNC), human, fibrinogen-like (Fg) domain, residues 1975-2201; also called biotinylated human TNC(Fg); biotinylated TNC(Fg); source: E. coli Origami 2(DE3), purified, biotinylated, then gel filtration
Take B1: the binding result in assay [1] is reported as “binds”.

B2: biotinylated Fg domain of human tenascin-C with an added N-terminal cysteine (domain or fragment)
chain: B1 chain
modifications: biotin (EZ-Link Maleimide-PEG2-Biotin) on the cysteine added at the N-terminus
notes: a cysteine residue added at the N-terminus of the Fg domain by site-directed mutagenesis; C-terminal fibrinogen-like (Fg) domain of human tenascin-C, amino acid residues 1975-2201; also called biotin-HTNC(Fg); biotinylated human TNC(Fg); source: E. coli Origami 2(DE3), purified, biotinylated, then gel filtration
B2: the binding result in [2] was “binds”.

B3: biotinylated FN domain of human RPTPζ (domain or fragment)
chain: not shown
modifications: biotin (EZ-Link NHS-PEG4-Biotin, 1:1 molar ratio)
By Kd is commonly meant the free concentration of one partner at which half of the binding sites on the other are occupied at equilibrium, for simple one-to-one binding. Read a low Kd as a tighter complex. One may read the koff as the rate constant with which the complex falls apart. Read a high koff as fast dissociation. With B3, the Kd in assay [3] worked out at 112 nM; in assay [4], 187 nM; in [5] it was 712 nM; in assay [6] it was 9900 nM. For the same molecule, the koff in assay [3] and in assay [4] was > 0.01 s⁻¹ in each case.

B4: biotinylated FN domain of human RPTPζ (domain or fragment)
chain: not shown
modifications: biotin (EZ-Link NHS-PEG4-Biotin, 1:1 molar ratio)
On to B4, for which the Kd was 242 nM and 191 nM and 127 nM and 187 nM in assay [7]; 114 nM and 117 nM and 113 nM and 104 nM in [8]; 150 nM and 170 nM and 189 nM and 173 nM in assay [9]; 79 nM and 80 nM and 78 nM in assay [10].
